Results published in PMC12491784, “A Circular RNA Promotes Tumor Metastasis through Stabilizing MSI2 Protein in Pancreatic Ductal Adenocarcinoma”.

B1: P2-mut RNA probe (ssRNA)
RNA: UCCUAUCAAAUAACUAAACCAAAG
B2: P1-mut RNA probe (ssRNA)
RNA: GUGUGCUCCAAACUUUAUCAAAAG
B3: P2 RNA probe (ssRNA)
RNA: UCCUAUCAAAUUAGUAAACCAAAG
B4: P1 RNA probe (ssRNA)
RNA: GUGUGCUCCAUAGUUUAUCAAAAG

Experiments:
[1] = target: T1, MSI2 (Musashi-2), recombinant (UniProt Q96DH6 1-328); assay: pull-down; EMSA: kit binding buffer (Beyotime GS009), 25 C 1 h, 5% native PAGE; RNA pull-down: 100 pmol biotinylated probe on streptavidin beads, 4 C 4 h; high-stringency; conditions: protein: recombinant; tags: GST; label: 5' biotin
T1 sequence (Q96DH6 whole entry): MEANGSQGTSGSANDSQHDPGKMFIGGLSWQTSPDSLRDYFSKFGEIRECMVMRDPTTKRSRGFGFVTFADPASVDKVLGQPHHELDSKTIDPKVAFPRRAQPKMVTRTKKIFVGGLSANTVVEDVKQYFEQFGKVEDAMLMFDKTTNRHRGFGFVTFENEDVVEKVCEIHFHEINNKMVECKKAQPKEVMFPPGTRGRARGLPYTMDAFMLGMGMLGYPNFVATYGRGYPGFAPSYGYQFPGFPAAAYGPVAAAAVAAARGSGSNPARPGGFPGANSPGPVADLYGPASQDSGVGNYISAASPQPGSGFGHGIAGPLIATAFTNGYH

[2] = target: T1, MSI2 (Musashi-2), recombinant; assay: EMSA; EMSA: kit binding buffer (Beyotime GS009), 25 C 1 h, 5% native PAGE; RNA pull-down: 100 pmol biotinylated probe on streptavidin beads, 4 C 4 h; high-stringency; conditions: protein: recombinant; tags: GST; label: 5' biotin

Binder	binding result [1]	binding result [2]
B1	no binding	–
B2	no binding	–
B3	–	binds
B4	–	binds
